B1: Pleckstrin homology domain-containing family M member 1 (Homo sapiens), Q9Y4G2 (parent)
chain: MLSVVENGLDPQAAIPVIKKKLVGSVKALQKQYVSLDTVVTSEDGDANTMCSALEAVFIHGLHAKHIRAEAGGKRKKSAHQKPLPQPVFWPLLKAVTHKHIISELEHLTFVNTDVGRCRAWLRLALNDGLMECYLKLLLQEQARLHEYYQPTALLRDAEEGEFLLSFLQGLTSLSFELSYKSAILNEWTLTPLALSGLCPLSELDPLSTSGAELQRKESLDSISHSSGSEDIEVHHSGHKIRRNQKLTASSLSLDTASSSQLSCSLNSDSCLLQENGSKSPDHCEEPMSCDSDLGTANAEDSDRSLQEVLLEFSKAQVNSVPTNGLSQETEIPTPQASLSLHGLNTSTYLHCEAPAEPLPAQAASGTQDGVHVQEPRPQAPSPLDLQQPVESTSGQQPSSTVSETAREVGQGNGLQKAQAHDGAGLKLVVSSPTSPKNKSWISEDDFYRPSREQPLESASDHPIASYRGTPGSRPGLHRHFSQEPRKNCSLGALDQACVPSPGRRQAQAAPSQGHKSFRVVHRRQMGLSNPFRGLMKLGTVERRGAMGIWKELFCELSPLEFRLYLSNEEHTCVENCSLLRCESVGPAHSDGRFELVFSGKKLALRASSQDEAEDWLDRVREALQKVRPQQEDEWVNVQYPDQPEEPPEAPQGCLSPSDLLSEPAALQGTQFDWSSAQVPEPDAIKESLLYLYMDRTWMPYIFSLSLEALKCFRIRNNEKMLSDSHGVETIRDILPDTSLGGPSFFKIITAKAVLKLQAGNAEEAALWRDLVRKVLASYLETAEEAVTLGGSLDENCQEVLKFATRENGFLLQYLVAIPMEKGLDSQGCFCAGCSRQIGFSFVRPKLCAFSGLYYCDICHQDDASVIPARIIHNWDLTKRPICRQALKFLTQIRAQPLINLQMVNASLYEHVERMHLIGRRREQLKLLGDYLGLCRSGALKELSKRLNHRNYLLESPHRFSVADLQQIADGVYEGFLKALIEFASQHVYHCDLCTQRGFICQICQHHDIIFPFEFDTTVRCAECKTVFHQSCQAVVKKGCPRCARRRKYQEQNIFA

Variants of: B1
Conditions: with rab7a_canlf RAB7A

effect of a mutation on the interaction	Variant
with no effect	R769A
with no effect	E729A
